# From article PMC9929448
# Assays:
# [1] = target: Noggin (Homo sapiens) (UniProt Q13253); test: SPR; conditions: cited from earlier work
# [2] = target: T1, Bone morphogenetic protein 2 (BMP-2), wild type, mature form (human); test: SDS-PAGE under reducing and nonreducing conditions; purified, refolded protein on 4 to 20% SDS-PAGE, Coomassie blue; covalent (disulphide) dimer
# T1 sequence (P12643 whole entry, looked up): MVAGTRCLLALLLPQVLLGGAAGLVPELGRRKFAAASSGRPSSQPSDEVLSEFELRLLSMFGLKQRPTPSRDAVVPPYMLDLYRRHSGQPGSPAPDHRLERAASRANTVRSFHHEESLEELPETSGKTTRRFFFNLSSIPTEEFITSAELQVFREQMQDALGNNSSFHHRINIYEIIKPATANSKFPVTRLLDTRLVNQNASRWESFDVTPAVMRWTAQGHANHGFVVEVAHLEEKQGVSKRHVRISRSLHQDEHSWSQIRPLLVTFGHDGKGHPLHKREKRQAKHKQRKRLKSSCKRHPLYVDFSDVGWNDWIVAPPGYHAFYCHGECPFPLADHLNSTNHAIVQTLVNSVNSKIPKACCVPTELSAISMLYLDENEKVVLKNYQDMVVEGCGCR
# [3] = target: Noggin (residues 28-232) (human (from the UniProt entry Q13253)) (UniProt Q13253); test: BLI; biotinylated Noggin (4 ug/mL) immobilised on streptavidin-coated biosensors, BMP-2 1 to 22.8 nM in solution; 30 °C; 50 mM sodium citrate pH 6.8, 150 mM NaCl, 1 mM magnesium acetate, 0.02% CHAPS; 1:1 interaction model; three repetitions
# [4] = target: BMP-2 N102D mutant, mature form (human); test: SDS-PAGE under reducing and nonreducing conditions; purified, refolded protein on 4 to 20% SDS-PAGE, Coomassie blue; covalent (disulphide) dimer
# Sequence of Noggin (residues 28-232) (human (Q13253 other isoform, or with tags, fused parts or gaps): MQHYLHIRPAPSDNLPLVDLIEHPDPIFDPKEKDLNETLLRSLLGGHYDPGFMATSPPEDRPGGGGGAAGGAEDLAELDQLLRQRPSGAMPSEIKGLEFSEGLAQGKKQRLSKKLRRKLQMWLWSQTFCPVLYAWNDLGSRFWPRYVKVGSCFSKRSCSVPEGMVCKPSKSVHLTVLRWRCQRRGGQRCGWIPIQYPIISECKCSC
# Sequence of Noggin (Homo sapiens) (Q13253 28-232): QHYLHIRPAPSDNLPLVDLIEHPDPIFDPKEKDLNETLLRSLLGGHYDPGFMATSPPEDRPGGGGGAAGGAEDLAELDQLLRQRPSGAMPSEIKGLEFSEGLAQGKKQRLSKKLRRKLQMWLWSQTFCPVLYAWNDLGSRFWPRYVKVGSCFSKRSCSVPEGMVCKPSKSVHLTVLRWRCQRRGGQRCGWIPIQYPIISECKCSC
stoichiometry N [2],Kd [3],koff [3],kon [3],stoichiometry N [3],stoichiometry N [4],Substance,Kd [1]
,,,,,,BMP-2 (from UniProt P12643),600 pM
2,360 pM,0.00042 s⁻¹,1.2e+06 M⁻¹ s⁻¹,1,,"Bone morphogenetic protein 2 (BMP-2), wild type, mature form (ligand)",
,300 pM,0.0007 s⁻¹,2.3e+06 M⁻¹ s⁻¹,,2,"BMP-2 N102D mutant, mature form (ligand)",
